In patent US20160326232A1 (Janssen / Centocor, published 2016):

T1: cynomolgus monkey PSMA extracellular domain with 6His and Avi tag (PSMW1), biotinylated (cynomolgus monkey, UniProt Q04609 44-750 (human entry), biotinylated ; Biotinylated, presumably on the Avi tag, which is not in the letters. Glycosylated (expressed in HEK cells). PSMA forms a homodimer; one subunit is given.)
T1 construct: Expressed in 293HEK-expi cells; buffer with ZnCl2 to stabilize PSMA dimerization; A cyno PSMA-Fc fusion was also used in some plate-based pannings; also called cyno PSMA; Macaca Fascicularis PSMA
T1 chain: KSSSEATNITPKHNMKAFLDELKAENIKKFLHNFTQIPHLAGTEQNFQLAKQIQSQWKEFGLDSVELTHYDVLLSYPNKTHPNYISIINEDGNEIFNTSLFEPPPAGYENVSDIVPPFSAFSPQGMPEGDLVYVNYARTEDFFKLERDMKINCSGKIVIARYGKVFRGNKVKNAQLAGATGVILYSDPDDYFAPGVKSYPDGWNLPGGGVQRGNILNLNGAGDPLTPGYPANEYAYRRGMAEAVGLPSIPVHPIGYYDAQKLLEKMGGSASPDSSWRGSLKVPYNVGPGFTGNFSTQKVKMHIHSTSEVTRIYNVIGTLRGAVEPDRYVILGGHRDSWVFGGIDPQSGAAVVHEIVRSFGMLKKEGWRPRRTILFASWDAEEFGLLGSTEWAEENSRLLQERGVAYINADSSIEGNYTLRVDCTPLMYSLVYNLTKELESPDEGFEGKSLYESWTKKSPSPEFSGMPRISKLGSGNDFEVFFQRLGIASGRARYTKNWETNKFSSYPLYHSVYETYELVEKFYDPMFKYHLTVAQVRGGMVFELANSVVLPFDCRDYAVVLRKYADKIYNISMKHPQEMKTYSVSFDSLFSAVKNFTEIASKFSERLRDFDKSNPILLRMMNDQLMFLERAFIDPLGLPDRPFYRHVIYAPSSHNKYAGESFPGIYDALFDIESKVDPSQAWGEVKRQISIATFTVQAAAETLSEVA

T2: chimpanzee PSMA extracellular domain with 6His and Avi tag (PSMW8), biotinylated (chimpanzee, UniProt Q04609 44-750 (human entry), biotinylated ; Biotinylated, presumably on the Avi tag, which is not in the letters. Glycosylated (expressed in HEK cells). PSMA forms a homodimer; one subunit is given.)
T2 construct: Expressed in 293HEK-expi cells; buffer with ZnCl2 to stabilize PSMA dimerization; also called chimp PSMA; Pan troglodytes PSMA
T2 chain: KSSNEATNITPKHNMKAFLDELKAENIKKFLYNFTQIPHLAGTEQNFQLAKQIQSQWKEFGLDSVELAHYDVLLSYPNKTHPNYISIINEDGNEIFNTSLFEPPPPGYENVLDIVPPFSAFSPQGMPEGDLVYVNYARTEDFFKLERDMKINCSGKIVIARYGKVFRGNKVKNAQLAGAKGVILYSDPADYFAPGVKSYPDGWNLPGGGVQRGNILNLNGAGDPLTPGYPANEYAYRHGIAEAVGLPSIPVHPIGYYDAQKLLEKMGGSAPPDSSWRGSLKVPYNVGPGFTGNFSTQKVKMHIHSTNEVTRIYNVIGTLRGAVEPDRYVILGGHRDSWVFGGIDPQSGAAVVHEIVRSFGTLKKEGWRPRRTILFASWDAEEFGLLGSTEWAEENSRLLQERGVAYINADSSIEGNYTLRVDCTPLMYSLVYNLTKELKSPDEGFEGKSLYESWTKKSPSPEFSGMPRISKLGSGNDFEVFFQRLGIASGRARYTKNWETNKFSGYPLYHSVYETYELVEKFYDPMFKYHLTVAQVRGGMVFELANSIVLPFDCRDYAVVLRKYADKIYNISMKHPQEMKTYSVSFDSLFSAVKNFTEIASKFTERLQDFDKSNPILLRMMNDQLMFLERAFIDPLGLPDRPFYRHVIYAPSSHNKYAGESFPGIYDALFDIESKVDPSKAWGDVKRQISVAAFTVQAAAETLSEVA


Key:
[1] = biological target: T1, cynomolgus monkey PSMA extracellular …; assay: hit of CIS-display panning and ELISA screen on biotinylated PSMA (same antigen as in panning; signal at least 10-fold above background); column Antigen species
Method: (§1) Neutravidin-coated plates were blocked for 1 h in Starting Block T20 (Pierce) and then coated with biotinylated PSMA (using same antigen as in panning) or negative control for 1 h. Plates were rinsed with TBST and diluted lysate was applied to plates for 1 h. Following additional rinses, wells were treated with HRP-conjugated anti-Centyrin antibody (PAB25) for 1 h and then assayed with POD (Roche). Centyrins with signals at least 10-fold above background were selected for further analysis.

[2] = biological target: T2, chimpanzee PSMA extracellular domain …; assay: as above
Method: as §1

binding result [1] | binding result [2] | Binder
binds | – | P258AR6P1071_F04 (designed binder, FN3 domain (Centyrin), unconjugated, as screened from E. coli lysate; not shown: C-terminal poly-histidine tag) LPAPKNLVVSRVTEDSARLSWVIDEQRDWFDSFLIQYQESEKVGEAIVLTVPGSERSYDLTGLKPGTEYTVSIYGVYHVYRSNPLSAIFTT
– | binds | P233FR9P1001_H3-1 (designed binder, FN3 domain (Centyrin), unconjugated, as screened from E. coli lysate; not shown: C-terminal poly-histidine tag) LPAPKNLVVSRVTEDSARLSWTAPDAAFDSFPIGYWEWDDDGEAIVLTVPGSERSYDLTGLKPGTEYHVYIAGVKGGQWSFPLSAIFTT
– | binds | P233FR9P1001_B5-5 (designed binder, FN3 domain (Centyrin), unconjugated, as screened from E. coli lysate; not shown: C-terminal poly-histidine tag) LPAPKNLVVSRVTEDSARLSWTAPDAAFDSFTIGYWEWDDDGEAIVLTVPGSERSYDLTGLKPGTEYPVYIAGVKGGQWSFPLSAIFTT
– | binds | P233FR9P1001_D9 (designed binder, FN3 domain (Centyrin), unconjugated, as screened from E. coli lysate; not shown: C-terminal poly-histidine tag) LPAPKNLVVSRVTEDSARLSWTAPDAAFDSFPIGYWEWDDDGEAIVLTVPGSERSYDLTGLKPGTEYWVYIAGVKGGQWSFPLSAIFTT
binds | – | P234CR9_A7 (designed binder, FN3 domain (Centyrin), unconjugated, as screened from E. coli lysate; also called P234CR9_A07; not shown: C-terminal poly-histidine tag) LPAPKNLVVSRVTEDSARLSWGEQFTIFDSFLIQYQESEKVGEAIVLTVPGSERSYDLTGLKPGTEYTVSIYGASGYEWFHAFGSSNPLSAIFTT

More lines, now with the values behind:

Binder | binding result [1] | binding result [2]
P234CR9_H01 (designed binder, FN3 domain (Centyrin), unconjugated, as screened from E. coli lysate; not shown: C-terminal poly-histidine tag) LPAPKNLVVSRVTEDSARLSWEWWVIPGDFDSFLIQYQESEKVGEAIVLTVPGSERSYDLTGLKPGTEYTVSIYGVVNSGQWNDTSNPLSAIFTT | binds | –
P229CR5P819_H11 (designed binder, FN3 domain (Centyrin), unconjugated, as screened from E. coli lysate; also called P229CR9P819-H11; not shown: C-terminal poly-histidine tag) LPAPKNLVVSRVTEDSARLSWDIDEQRDWFDSFLIQYQESEKVGEAIVLTVPGSERSYDLTGLKPGTEYTVSIYGVYHVYRSSNPLSAIFTT | – | binds
P258AR6P1070_A05 (designed binder, FN3 domain (Centyrin), unconjugated, as screened from E. coli lysate; not shown: C-terminal poly-histidine tag) LPAPKNLVVSRVTEDSARLSWTIDEQRDWFDSFLIQYQESEKVGEAIVLTVPGSERSYDLTGLKPGTEYTVSIYGVYHVYRSNPLSAIFTT | binds | –
P258AR6P1071_D02 (designed binder, FN3 domain (Centyrin), unconjugated, as screened from E. coli lysate; not shown: C-terminal poly-histidine tag) LPAPKNLVVSRVTEDSARLSWAIDEQRDWFESFLIQYQESEKVGEAIVLTVPGSERSYDLTGLKPGTEYTVSIYGVYHVYRSNPLSAIFTT | binds | –
P258AR6P1071_G03 (designed binder, FN3 domain (Centyrin), unconjugated, as screened from E. coli lysate; not shown: C-terminal poly-histidine tag) LPAPKNLVVSRVTEDSARLSWDIDEQRDWFDSFLIQYQESEKVGEAIVLTVPGSERSYDLTGLKPGTEYTVSIYGVYHVYRSNPLSAIFTT | binds | –
P258AR6P1070_F09 (designed binder, FN3 domain (Centyrin), unconjugated, as screened from E. coli lysate; not shown: C-terminal poly-histidine tag) LPAPKNLVVSRVTEDSARLSWTIDEQRDWFESFLIQYQESEKVGEAIVLTVPGSERSYDLTGLKPGTEYTVSIYGVYHVYRSNPLSAIFTT | binds | –
His-tagged P233FR9-H10 centyrin (designed binder, FN3 domain (Centyrin), unconjugated; used in the screen and in the crystal structure with cynoPSMA; also called H10 FN3 domain; P233FR9_10; not shown: C-terminal His-tag) LPAPKNLVVSRVTEDSARLSWTAPDAAFDSFAIGYWEWDDDGEAIVLTVPGSERSYDLTGLKPGTEYPVYIAGVKGGQWSFPLSAIFTT | – | binds
